“And” between values parts separate entries of the source, which are not always exact repeats. Equal entries are not always repeated.
Biological target: the molecule itself
Experiment: immunoblot with non-reducing loading buffer; HEK293T transfected with varying concentrations of SDC4 plasmids; SDS-PAGE, positions of SDC4 tetramer, dimer and monomer

B1: Flag-tagged full-length mouse SDC4 (receptor, UniProt O35988 24-198, looked up)
chain: ESIRETEVIDPQDLLEGRYFSGALPDDEDAGGSDDFELSGSGDLDDTEEPRPFPEVIEPLVPLDNHIPENAQPGIRVPSEPKELEENEVIPKRAPSDVGDDMSNKVSMSSTAQGSNIFERTEVLAALIVGGVVGILFAVFLILLLVYRMKKKDEGSYDLGKKPIYKKAPTNEFYA
notes: Plasmids provided by GenePharma; Seen as monomer, dimer and tetramer bands on non-reducing blots; also called Flag-SDC4; Flag (SDC4); source: HEK293T, transfected (pcDNA 3.1), in lysate; not shown: Flag, C-terminal, kept
stoichiometry N: 2 and 4
